The source of these data is the supplement of paper PMC5998384.

Series [1] deals with HeLa Kyoto. The series is described as follows: solubility change mitosis vs G1/S (difference of NP-40 vs SDS log2 ratios) (log2 ratio difference); higher = more soluble in mitosis.
Series [2] relates to HeLa Kyoto. The series is described as follows: thermal stability score vs G1/S (z-score of summed log2 fold changes over temperatures); higher = more thermally stable than in G1/S.
Series [3] has as its system HeLa Kyoto. Nature of the series: solubility in G1/S (NP-40 vs SDS abundance) (log2 ratio); higher = more soluble. The following applies: cell cycle stage: G1/S.
Series [4] has as its system HeLa Kyoto. Nature of the series: melting temperature (median over replicates), in situ; higher = more thermally stable.
[5] abbreviates: cell cycle stage: early G1 (4.5 h after nocodazole release).
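Throughout, for melting temperature (median over replicates), in situ: HeLa Kyoto cells synchronized by double thymidine or nocodazole block, proteins quantified by TMT10plex mass spectrometry, three independent biological replicates.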
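Throughout, for solubility change mitosis vs G1/S (difference of NP-40 vs SDS log2 ratios): synchronized HeLa Kyoto cells (double thymidine block for G1/S, nocodazole release for mitosis), protein amounts in NP-40 versus SDS lysates quantified by mass spectrometry, three biological replicates.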
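Throughout, for solubility in G1/S (NP-40 vs SDS abundance): HeLa Kyoto cells arrested at G1/S by double thymidine block, proteins quantified by TMT10plex mass spectrometry in mild NP-40 versus SDS extracts, three biological replicates.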
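Throughout, for thermal stability score vs G1/S (z-score of summed log2 fold changes over temperatures): synchronized HeLa Kyoto cells, proteins quantified by TMT10plex mass spectrometry, three biological replicates, mitosis taken 0.5 h after nocodazole release, G1/S directly after double thymidine block.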

“MIASHLLAYFFTELNHDQVQKVDQYLYHMRLSDETLLEISKRFRKEMEKGLGATTHPTAAVKMLPTFVRSTPDGTEHGEFLALDLGGTNFRVLWVKVTDNGLQKVEMENQIYAIPEDIMRGSGTQLFDHIAECLANFMDKLQIKDKKLPLGFTFSFPCHQTKLDESFLVSWTKGFKSSGVEGRDVVALIRKAIQRRGDFDIDIVAVVNDTVGTMMTCGYDDHNCEIGLIVGTGSNACYMEEMRHIDMVEGDEGRMCINMEWGAFGDDGSLNDIRTEFDQEIDMGSLNPGKQLFEKMISGMYMGELVRLILVKMAKEELLFGGKLSPELLNTGRFETKDISDIEGEKDGIRKAREVLMRLGLDPTQEDCVATHRICQIVSTRSASLCAATLAAVLQRIKENKGEERLRSTIGVDGSVYKKHPHFAKRLHKTVRRLVPGCDVRFLRSEDGSGKGAAMVTAVAYRLADQHRARQKTLEHLQLSHDQLLEVKRRMKVEMERGLSKETHASAPVKMLPTYVCATPDGTEKGDFLALDLGGTNFRVLLVRVRNGKWGGVEMHNKIYAIPQEVMHGTGDELFDHIVQCIADFLEYMGMKGVSLPLGFTFSFPCQQNSLDESILLKWTKGFKASGCEGEDVVTLLKEAIHRREEFDLDVVAVVNDTVGTMMTCGFEDPHCEVGLIVGTGSNACYMEEMRNVELVEGEEGRMCVNMEWGAFGDNGCLDDFRTEFDVAVDELSLNPGKQRFEKMISGMYLGEIVRNILIDFTKRGLLFRGRISERLKTRGIFETKFLSQIESDCLALLQVRAILQHLGLESTCDDSIIVKEVCTVVARRAAQLCGAGMAAVVDRIRENRGLDALKVTVGVDGTLYKLHPHFAKVMHETVKDLAPKCDVSFLQSEDGSGKGAALITAVACRIREAGQR [HK2]”: the “solubility change mitosis (log2)” value in the series with HeLa Kyoto [1] is -0.148. The thermal stability score in the series on HeLa Kyoto [2] (setting [5]) turned out to be 1.07; in the series with HeLa Kyoto [2] (cell cycle stage: mitosis), 2.33. Further, in the series on HeLa Kyoto [3], the “solubility in G1/S (log2)” value was -0.166. For the same sequence, the melting temperature was found to be 48.2 °C with HeLa Kyoto [4] (cell cycle stage: G1/S) and 49.1 °C in the series on HeLa Kyoto [4] (cell cycle stage: mitosis).
As for “MICLVLTIFANLFPAACTGAHERTFLAVKPDGVQRRLVGEIVRRFERKGFKLVALKLVQASEELLREHYAELRERPFYGRLVKYMASGPVVAMVWQGLDVVRTSRALIGATNPADAPPGTIRGDFCIEVGKNLIHGSDSVESARREIALWFRADELLCWEDSAGHWLYE [NME3]”, in the series on HeLa Kyoto [1], the “solubility change mitosis (log2)” value was -0.0854. Further, the thermal stability score in the series on HeLa Kyoto [2] (setting [5]) is -1.81; in the series on HeLa Kyoto [2] (cell cycle stage: mitosis), -2.22. In addition, in the series on HeLa Kyoto [3], the “solubility in G1/S (log2)” value was -0.213. For the same sequence, the melting temperature with HeLa Kyoto [4] (cell cycle stage: G1/S) was 55.7 °C; with HeLa Kyoto [4] (cell cycle stage: mitosis), 56.8 °C.
Take “MIDSSKKQQQGFPEILTAGDFEPLKEKECLEGSNQKSLKEVLQLRLQQRRTREQLVDQGIMPPLKSPAAFHEQIKSLERARTENFLKHKIRSRPDRSELVRMHILEETFAEPSLQATQMKLKRARLADDLNEKIAQRPGPMELVEKNILPVDSSVKEAIIGVGKEDYPHTQGDFSFDEDSSDALSPDQPASQESQGSAASPSEPKVSESPSPVTTNTPAQFASVSPTVPEFLKTPPTADQPPPRPAAPVLPTNTVSSAKPGPALVKQSHPKNPNDKHRSKKCKDPKPRVKKLKYHQYIPPDQKGEKNEPQMDSNYARLLQQQQLFLQLQILSQQKQHYNYQTILPAPFKPLNDKNSNSGNSALNNATPNTPRQNTSTPVRKPGPLPSSLDDLKVSELKTELKLRGLPVSGTKPDLIERLKPYQEVNSSGLAAGGIVAVSSSAIVTSNPEVTVALPVTTLHNTVTSSVSTLKAELPPTGTSNATRVENVHSPLPISPSPSEQSSLSTDDTNMADTFTEIMTMMSPSQFLSSSPLRMTNNEDSLSPTSSTLSNLELDAAEKDRKLQEKEKQIEELKRKLEQEQKLVEVLKMQLEVEKRGQQQRPLEAQPSAPGHSVKSDQKHGSLGSSIKDEASLPDCSSSRQPIPVASHAVGQPVSTGGQTLVAKKAVVIKQEVPVGQAEQQSVVSQFYVSSQGQPPPAVVAQPQALLTTQTAQLLLPVSIQGSSVTSVQLPVGSLKLQTSPQAGMQTQPQIATAAQIPTAALASGLAPTVPQTQDTFPQHVLSQPQQVRKVFTNSASSNTVLPYQRHPAPAVQQPFINKASNSVLQSRNAPLPSLQNGPNTPNKPSSPPPPQQFVVQHSLFGSPVAKTKDPPRYEEAIKQTRSTQAPLPEISNAHSQQMDDLFDILIKSGEISLPIKEEPSPISKMRPVTASITTMPVNTVVSRPPPQVQMAPPVSLEPMGSLSASLENQLEAFLDGTLPSANEIPPLQSSSEDREPFSLIEDLQNDLLSHSGMLDHSHSPMETSETQFAAGTPCLSLDLSDSNLDNMEWLDITMPNSSSGLTPLSTTAPSMFSADFLDPQDLPLPWD [MKL2]”: in the series with HeLa Kyoto [1], the “solubility change mitosis (log2)” value was -0.304. In addition, the results for the thermal stability score in the series with HeLa Kyoto [2] (setting [5]) and with HeLa Kyoto [2] (cell cycle stage: mitosis) were 1.45 and 3.81, respectively. For the same sequence, the “solubility in G1/S (log2)” value with HeLa Kyoto [3] turned out to be 0.208. Moreover, the figures for the melting temperature in the series with HeLa Kyoto [4] (cell cycle stage: G1/S) and in the series on HeLa Kyoto [4] (cell cycle stage: mitosis) were 52.5 °C and 53 °C, respectively.
